Results published in the nanobody polyreactivity screen of Harvey et al. (2022).

Test: yeast display, Sf9 membrane polyspecificity reagent, FACS + sequencing; frameworks hold sequencing errors
Procedure, shortened: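 Nanobodies from a synthetic yeast display library (Saccharomyces cerevisiae BJ5465), induced 36–48 hours with galactose, were stained 1 hour at 4 °C with 10% biotinylated, detergent-solubilized Sf9 membrane reagent, enriched on streptavidin microbeads, then FACS-sorted. Anti-HA (expression) and streptavidin (reagent binding) fluorescence set low and high (top ~1%) gates. Polyreactivity labels come from the gate of origin. Genes were colony-PCR amplified, MiSeq 2 × 250 sequenced and filtered by CDR length.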

Row | Sequence | polyreactivity (PSR sort gate)
1 | QVQLVESGGGLVQAGGSLRLSCAASGSIFYRYAMGGYRQAPGKERELVAAISSRGGSTYYADSVKGRFTISRDTAKNTVYLQMNSLKPEDTAVYYCNKDNHDLELPVEFEYWGQGTQVTVSS | high polyreactivity
2 | QVQLVESGGGLVQAGGSHRLSCAASGSTFRYYPMGWYRQAPGKERELVARITSRAGRTYYADSVKGRFTISRDNAKNTVYLQMNSVKPEDTAVYYCNANRFRRYDWGQGTQVTVSS | high polyreactivity
3 | QVQLVESGGGLVQAGGSLRLSCAASGNTFFYYAMGWYRQAPGKERELVAAINRSGGSTYYADSVKGRFTISRDNAKNTVYLQMNSLKPEDTAVYYCARVLPGGWKSRISDYWGQGTQVTVSS | low polyreactivity
4 | QVQLVESGGGLDQAGGSLRLSCAASGYVMGWYRQAPGKERELVASITRGTSTYYADSVKGRFTISRDNAKNTVYLQMNSLKPEDTAVYYCAARTTSGEWPPGKIGTYLYDYWGQGTQVTVSS | low polyreactivity
5 | QVQLVESGGGLVQAGGSLRLSCAASGRTFGFNAMGWYRQAPGKERELVAAISGSGGRTYYADSVKGRFTISRDNAKNTVYLQMNSLKPEDTAVYYCAAGARRGGSGYWGQGTQVTVSS | high polyreactivity
6 | QVQLVESGAGLVQAGGSLRLSCAASGFIFYIYAMGWYRQAPGKEREFVAVISSSGGITYYADSVKGRFTISRDNAKNTFYLQMNSLKPEDTAVYYCARDTEGKYVGYGRGGYWGQGTQVTVSS | low polyreactivity
7 | QVQLVESGGGLVQAGGSLRLSCAASGSIFSRYAMGWSRQAPGKERELVAAISKSGGTTYYADSVKGRFTISRDNAKNTVYLQMNSLKPEDTAVYYCNAKRYRNGSIGMGYWGQGSQVTVSS | high polyreactivity
8 | QVQLVESGGGLVQAGGSLRLSCAASGRTLHYYAMGWYRQAPGKERELVAAISARVGRTYYADSVKGRFTISRDNAKNTVYLQMNSLKPEDTEVYYCAAAGYITRYDRYDYWGQGTQVTVSS | high polyreactivity
9 | QVQLVESGGGLVQAGGSLRLSCAASGSIFEYYTMGWYRQAPGKERELVAGISWSGGSTYYADSVKGRFTISRDNAKNTVYLQMNSLKPEDTAVYYCAAGRTGWYWDSGSTYRYGYGYWGQGTQVTVSS | high polyreactivity
10 | QVQLVESGGGLVQAGGSLRLSCAASGSTFDYYAMGWYRQAPGKERELVATISWSGTDTYYADSVKGRFTISRDNAKNTVYLQMNSLKPEDTAVYYCAADTVYWRGWSGYYYWGQGTQVTVSS | low polyreactivity
11 | QVQLVESGGGLVQAGGSLRLSCAASGSIFYIYALGWYRQAPGKERELVAAISRSGGRTYYADSVKGRFTISRDNAKNTVYLQMNSLKPEDTGVYYCAARRYTAYDYWGQGTQVTVSS | high polyreactivity
12 | QVQLVESGGGLVQAGGSLRLSCAASGSTIEANAMGWYRQAPGKERELVAVNTWTGGSTYYADSVKGRFTISRDNAKNTVYLQMNSLKPEDTAVYYCAADGVVPGRFFWPAHEYDYWGQGTQVTVSS | low polyreactivity
13 | QVQLVESGGGLVQAGGTLRLSCAPSGRTFKRYAMGWYRQAPGKERELVAAISSGGSTYADSVKGRFTISRDNAKNTVYLHMNSLKTEDTAVYYCAARYRSYPERYNYWGQGTQGTVSS | high polyreactivity
14 | QVQLVESGGGLVQAGGSLRLSCAASGLILGYYAMGWYRQAPGKERELVATIRRGASTYYADSVKGRFTISRDNAKNTVYLQMNSLKPEDTAVYYCAADTERSLAGGMYYWGEGTQVTVSS | low polyreactivity
15 | QVQLVESGGGLVQAGGSLRLSCAASGSTSSYYAMGWYRQAPGKERELVAAIRTSGRTYYADSVKGRFTISRDNAKNTVYLQMNSLKPEDTAVYYCNAVYVSPDYDSWGQGTQVTVSS | high polyreactivity
16 | QVQLVESGGGLVQAGGSLRLSCAASGRIFSTYVMGWYRQAPGKERELVAAIRNRGGSTYYADSVKGRFTISRDNAKNTVYLQMNSLKPEDTAVYYCAAEYSYRYRVSMDYWGQGTQVTVSS | high polyreactivity
17 | QVQLVESGGGLVQAGGSLRLICAASGSIFVNNGMGWYRQAPGKERELVAAIRLSTGSTYYADSVKGRFPISRDNAKNTVYLQMNSLKPEDTAVYYCATRYYIWGNWGQGTQVTVSS | high polyreactivity
18 | QVQLVESVGGLVQAGGSLSLSCAASVFGRYAMGWYRPAPGKERELVARIYSSGGSTHYADSVKGRFTISRDNAKNTVYLQMNSLKPEDTAVYYCATGSTRWGCYYYWGQGTQVTVSS | high polyreactivity
19 | QVQLVESGGGLVQAGGSLRLSCAASGFIFLSNGMGWYRPAPGKERELVAAITSGGNTNYADSVTGRFTISRDNAKTTVYLQMNSLKPEDTAVYYCAAYWIFITYFGYYSEYAYWGQGTQVTVSS | low polyreactivity
20 | QVQLVESGGGLVQAVGSLRLSCAASGHIFCYYTMGRYRQAPGKERELVAGITIGGSTNYADSVKGRFTISRDNAKNTVYLQMNSLKPEDTAVYYCNVVKYVYIYSYWEYYYWGQGTQVTVSS | low polyreactivity
21 | QVQLVESGGGLVQAGGSLRLSCAASGGIFFYSAMGWYRQAPGTERELVAAISYSGGSTYYADSVKGRFTISRDIAKNTVYLQMISLKPEDTAVYYCAADVYSESKSGIYEYWGQGTQVTVSS | low polyreactivity
22 | QVQLVESGGGLVQAGGCLRLSCAASGLIFIKYTMGWYRQAPGKERELVAVISGSGGSTYYADSVKGRFTISRDNAKNTVYLQMNSLKPEDTAVYYCAARSYALGYGGGYWGQGTQVTVSS | high polyreactivity

Row | Sequence | polyreactivity (PSR sort gate)
23 | QVQLVESGGRLVQAGGSLRLSCAASGRIFATYAMGWYRQAPGKEWQLVAGITSGGRTNYADSVKGRFTISRDNAKNTVYLQMNSLKPEDTAVYYCDKRVWPRDQYGKRNPRMDYWGQGTQETVSS | high polyreactivity
24 | QVQLVESGGGLVQAGGSLRLSCAASGRTFPYNVMGGYRQAPGKERELVASNDGSGGSTYYADSVKGRFTISRDNAKKTVYLQMNSLKPEDTAVYYCAAVYYQSGNYWYSYLGQSPYDYWGQGTQVTVSS | low polyreactivity
25 | QVQLVESGGGLVQAGGSLRLSCAASGIFRRYAMGWYRQAPGKERELVAAISYSGGSTEYADSVKGRFTISRDNAKNTVYLQMNSLKPEDTAVYYCAAVNRPRPRRSDYWGQGTQVTVSS | high polyreactivity
26 | QVQLEESAGGIVQAGGSLRLSCAGSGSTVSVYAMGWYRQAPGKEWELVARIRWSSGITYYADSVNGRFTISRDNAKNTVYLQLNSVKPEDTAVYYCNAQYRRAYLWFLYDYWGQGTQVTVSS | high polyreactivity
27 | QVQLVESGGGLVQAGGSLRLSCAASGSIIVRYAMGWYRQAPGKDRELVATITFRDTSTYYADSEKGRFTISRDNAKNTVYLQMNSLKPEDTAVYYCAAVRAVLWDIARYDYWGQGSQVTVSS | low polyreactivity
28 | QVQLVESGGGLVQAGGSLRLSCAASGSIFYFYAMGWYRQAPGKERELVATITRRTGRTYYADSVKGRFTISRDNAKNTVYLQMNSLKPEDTAVYYCAARPKGPYGVWYNYWGQGTQVTVSS | high polyreactivity
29 | QVQLLESGGGLVQAGGCLRLRCAASVRTFEQNAMGWCRRAPGKERELVASITSVGSTDYADSVKGRFTISRDNAKNTVYLQMNSLKPEDTAGYYCAKTLGSQNYDFDYWGQGTQVTVSS | low polyreactivity
30 | QVQLEESGGGLVQAGASLRLSCAASGRTFPRYAMGWSRQAPGKERELVAAITSSGGSTNYADSVKGRFTISRENATNSVYLQMYSLKPEDTAVYYCNARFPTQYILWSSSPYGYWGQGTQVTVSS | low polyreactivity
31 | QVQLVESGGGLVQAGGSLRIRCAASGRIFPYYAMGWYRQAPGKERDLVATITSGGSTYYADTVKGRFTISRDNSKNTVYLQMKSLKPEDTAVYYCAARYPSIYYYRYDFWGQGTQVTVSS | high polyreactivity
32 | QVQLVESGGGLVQAGGSLRLSCAASGHTFSISAMGWYRQAPGKERELVAAISLSGGSTDYADSVKGRFTISRDNAKNTVYLQMNSLKPEDTAVYYCAADVFTARRSYDYGGQGTQVTVSS | low polyreactivity
33 | QVQLVESGGGLVQAGGSLRLSCAASGSTFDTNAMGWYRQAPGKERELVASISSAGSTNYADSVKGRFTISRDNAKNTVYLQMNSLKPEDTAVYYCAKYYGQFYPPTLGYWGQGTQVTVSS | low polyreactivity
34 | QVQLVESGGGLVQAGGSLSLSCAASGRTIAYYAMGWDRQAPGKEMEFVAAISSTGTSTYYADSVKGRFTISRDNAKNTVYLQMNSLKPEDTGVYYCNARVATYRLHSKFYYWGQRTQVTVSS | high polyreactivity
35 | QVQLVESGGGLVQAGGSLRLSCAASGIIFDGNAMGWYRQAPGKERELVAAISSRGSRTYYADSVKGRFTISRDNAKNTVYLQMNSLKPEDTAVYSCNAGYVFRSYGYDPWGQGTQVTVSS | high polyreactivity
36 | QVQLVESGGGLVQAGGSLRLSCAAYGNTFEGYAKGWYRQAPGKERELVAAISGSSGSTYYADSVKGRFTISRDNAKNTVYLQMNSLKPEDTAVYYCAAYSYYPPYDYWGQGTQVTVSS | high polyreactivity
37 | QVQLVESGGGLVQAGGSLRLSCAASGYTFHDYAMGWYRQAPGKERELVAAISKRGGSTYYADSVKGRFTISRDNAKNTVYLQMNSLKPEDTAVYYCAKGGPHRGTGLNDYWGQGTQVTVSS | high polyreactivity
38 | QVQLVESGGGIVQAGGSLSLSCAASGFIIPSYTMGWYRQAPGKERDLVAGITQRGGSTYYADSVKGRFTISRDNAKNTVYLQMNSLNPEDTAVYYCARGISRGRSFGIGYDYWGQGTQVTLSS | low polyreactivity
39 | QVQLVESGGGLVQAGGSLRLSCAASVFIFGLYAMGWYRQAPGKERELVAAISRSGGSTYYADSVKGRFTISRDNEKNTVYLQMNSLKPEDTAVYYCAKRASPRQAGPIYDSWGQGTQVTVSS | high polyreactivity
40 | QVQLVESGGGLVQAGGSLRLSCAASGRIFGRNAMGWYRQAPGKEREFVAAISRSGASTYYADSVKGRFTISRDNAKNTVYLQMNSLKPEDTAVYYCARTTRQSSAYTYSDEYDYWGQGTQVTVSS | high polyreactivity
41 | QVQLGESGGGLGQAGGSLSLSCAATGSIFPYNPMGWYRQAPGKERELVATINSRGGRTYYADSVKGRFTISRDNAKNTVYLQMNSLKPEDTAVYYCARYYSSALRYGYWGQGTQVTVSS | low polyreactivity
42 | QVQLVESGGGLVQAGGSLRLSCAASGSIFRYYAMGWYRQAPGKERELVAAITWRGGGTYYADSVKGRFTISRDNAKNTVYLQMNSLKPEDTAVYYCAKARFTRGTWFYYWGQGTQVTVSS | high polyreactivity
43 | QVQLVESGGGLVQAGGSLRLSCAASGSILVSYAMGWYRPAPGKERELVAAITSGGRTKYADSVKGRFTISRDNAKNTVYLQMNSLKPEDTAVYYCAADDPLSYQFDYWGQGTQVTVSS | high polyreactivity
